Experimental data from US7429646.

Target: its ligand (ligand of TR2, not identified)
Assay: cell-based or functional assay

allogeneic MLR-mediated proliferation of PBMC ([3H]-thymidine incorporation): < 53%
Substance: TR2-Fc fusion protein (TR2 extracellular domain fused to human IgG1 Fc, pcDNA3, NIH 3T3) (from UniProt Q92956 37-200)
